Assay results reported in patent publication US10500249B2, “Compositions and methods for preventing or treating diseases, conditions, or processes characterized by aberrant fibroblast proliferation and extracellular matrix deposition” (MOERAE MATRIX, INC., priority 2014, dated 2019).

Tests used:
Assay in all cases: Kinase Profiling Assay
Settings in all cases: 100 μM
SGK (h) = format: biochemical, human
Protocol: (§1) Every kinase activity measurement was conducted in duplicate.
(§2) Specifically, in these assays, a positively charged substrate is phosphorylated with a radiolabeled phosphate group from an ATP if the kinase is not inhibited by an inhibitor peptide. The positively charged substrate then is attracted to a negatively charged filter membrane, quantified with a scintillation counter, and compared to a 100% activity control.
(§3) In addition to determining the IC50 of the compound, the specificity of MK2 inhibitory peptides was assessed by examining activities of all 266 human kinases available for testing in the Millipore kinase profiling service (Table 1).

CaMKI (h) = format: biochemical, human
Protocol: as §1, §2, §3

MLCK (h) = format: biochemical, human
Protocol: as §1, §2, §3

Met(D1246N) (h) = Met(D1246N) (h) (Homo sapiens, UniProt P08581, D1228N); format: biochemical
Protocol: as §1, §2, §3

WNK3 (h) = WNK3 (h) (Homo sapiens, UniProt Q9BYP7); format: biochemical
Protocol: as §1, §2, §3

Fgr (h) = Fgr (h) (Homo sapiens, UniProt P09769); format: biochemical
Protocol: as §1, §2, §3

GRK7 (h) = biological target: T1, GRK7 (h) (Homo sapiens, UniProt Q8WTQ7); format: biochemical
T1 construct: purchased Millipore
T1 sequence (Q8WTQ7 1-553): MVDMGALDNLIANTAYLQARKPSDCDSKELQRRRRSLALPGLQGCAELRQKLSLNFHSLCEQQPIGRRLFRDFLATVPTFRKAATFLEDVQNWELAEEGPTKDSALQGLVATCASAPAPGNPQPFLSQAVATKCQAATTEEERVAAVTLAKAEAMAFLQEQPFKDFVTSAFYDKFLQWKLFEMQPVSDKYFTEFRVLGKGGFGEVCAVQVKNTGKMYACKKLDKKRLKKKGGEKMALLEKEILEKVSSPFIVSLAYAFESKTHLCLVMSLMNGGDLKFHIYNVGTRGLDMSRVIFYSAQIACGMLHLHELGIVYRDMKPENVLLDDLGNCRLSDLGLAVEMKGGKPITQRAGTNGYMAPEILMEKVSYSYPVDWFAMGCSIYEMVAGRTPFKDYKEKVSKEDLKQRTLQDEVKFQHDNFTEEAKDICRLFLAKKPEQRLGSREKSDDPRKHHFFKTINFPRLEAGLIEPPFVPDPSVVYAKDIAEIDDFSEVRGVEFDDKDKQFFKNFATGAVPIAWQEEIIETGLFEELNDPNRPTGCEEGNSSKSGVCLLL
Protocol: as §1, §2, §3

mTOR (h) = biological target: T2, mTOR (h) (Homo sapiens, UniProt P42345); format: biochemical
T2 construct: purchased Millipore
Protocol: as §1, §2, §3

CHK2(I157T) (h) = biological target: T3, CHK2(I157T) (h) (Homo sapiens, UniProt O96017, I157T); format: biochemical
T3 construct: purchased Millipore
Protocol: as §1, §2, §3

CHK1 (h) = biological target: T4, CHK1 (h) (Homo sapiens, UniProt O14757); format: biochemical
T4 construct: purchased Millipore
T4 sequence (O14757 1-476): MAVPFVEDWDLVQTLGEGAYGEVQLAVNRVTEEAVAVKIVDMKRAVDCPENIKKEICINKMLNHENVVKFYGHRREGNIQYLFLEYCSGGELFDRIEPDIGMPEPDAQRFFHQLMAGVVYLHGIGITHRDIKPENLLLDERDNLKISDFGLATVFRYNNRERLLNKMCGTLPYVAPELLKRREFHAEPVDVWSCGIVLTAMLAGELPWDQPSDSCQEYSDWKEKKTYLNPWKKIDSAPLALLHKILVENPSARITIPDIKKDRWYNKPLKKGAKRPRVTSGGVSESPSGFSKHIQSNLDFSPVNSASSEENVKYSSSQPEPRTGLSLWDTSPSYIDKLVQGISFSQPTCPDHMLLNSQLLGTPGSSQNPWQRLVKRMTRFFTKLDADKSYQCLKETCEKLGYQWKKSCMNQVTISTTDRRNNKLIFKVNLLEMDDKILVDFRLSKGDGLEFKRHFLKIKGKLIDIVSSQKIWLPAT
Protocol: as §1, §2, §3

CK2 (h) = biological target: T5, CK2 (h) (Homo sapiens, UniProt P68400); format: biochemical
T5 construct: purchased Millipore
Protocol: as §1, §2, §3

IRAK1 (h) = biological target: T6, IRAK1 (h) (Homo sapiens, UniProt P51617); format: biochemical
T6 construct: purchased Millipore
Protocol: as §1, §2, §3

ARK5 (h) = biological target: T7, ARK5 (h) (Homo sapiens, UniProt O60285); format: biochemical
T7 sequence (O60285 1-661): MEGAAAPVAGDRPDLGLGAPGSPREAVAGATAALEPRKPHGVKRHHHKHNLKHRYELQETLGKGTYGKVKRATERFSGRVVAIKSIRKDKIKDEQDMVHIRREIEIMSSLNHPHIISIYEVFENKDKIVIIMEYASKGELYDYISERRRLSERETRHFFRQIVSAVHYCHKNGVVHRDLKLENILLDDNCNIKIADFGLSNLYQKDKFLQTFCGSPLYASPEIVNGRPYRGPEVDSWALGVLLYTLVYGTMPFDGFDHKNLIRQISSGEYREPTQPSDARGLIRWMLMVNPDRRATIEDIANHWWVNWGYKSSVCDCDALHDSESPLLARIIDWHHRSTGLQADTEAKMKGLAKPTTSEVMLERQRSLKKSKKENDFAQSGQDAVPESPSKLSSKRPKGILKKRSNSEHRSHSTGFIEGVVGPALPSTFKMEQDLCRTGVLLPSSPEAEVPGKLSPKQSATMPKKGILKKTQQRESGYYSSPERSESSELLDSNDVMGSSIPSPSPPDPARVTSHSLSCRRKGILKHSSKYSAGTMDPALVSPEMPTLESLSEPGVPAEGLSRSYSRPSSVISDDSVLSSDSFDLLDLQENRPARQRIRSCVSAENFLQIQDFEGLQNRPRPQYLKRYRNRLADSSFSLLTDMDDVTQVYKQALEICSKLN
Protocol: as §1, §2, §3

T5 sequence (P68400 whole entry): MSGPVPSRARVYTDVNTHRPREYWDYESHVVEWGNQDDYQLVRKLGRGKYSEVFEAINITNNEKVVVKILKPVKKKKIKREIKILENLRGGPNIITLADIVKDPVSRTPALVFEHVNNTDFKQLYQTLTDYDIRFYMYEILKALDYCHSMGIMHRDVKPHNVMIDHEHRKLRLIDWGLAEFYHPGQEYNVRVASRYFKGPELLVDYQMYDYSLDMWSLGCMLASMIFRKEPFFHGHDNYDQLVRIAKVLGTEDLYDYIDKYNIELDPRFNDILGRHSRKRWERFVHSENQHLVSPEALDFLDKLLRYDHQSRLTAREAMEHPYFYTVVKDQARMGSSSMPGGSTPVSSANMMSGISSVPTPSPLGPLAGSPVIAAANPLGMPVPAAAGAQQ
T5 sequence (P67870 whole entry partner): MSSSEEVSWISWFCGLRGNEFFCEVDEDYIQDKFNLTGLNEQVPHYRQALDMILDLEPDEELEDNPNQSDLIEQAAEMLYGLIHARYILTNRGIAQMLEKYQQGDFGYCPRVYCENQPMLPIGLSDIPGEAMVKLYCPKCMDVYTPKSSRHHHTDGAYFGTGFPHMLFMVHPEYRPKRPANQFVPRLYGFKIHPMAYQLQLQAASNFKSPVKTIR
T3 sequence (O96017 whole entry I157T): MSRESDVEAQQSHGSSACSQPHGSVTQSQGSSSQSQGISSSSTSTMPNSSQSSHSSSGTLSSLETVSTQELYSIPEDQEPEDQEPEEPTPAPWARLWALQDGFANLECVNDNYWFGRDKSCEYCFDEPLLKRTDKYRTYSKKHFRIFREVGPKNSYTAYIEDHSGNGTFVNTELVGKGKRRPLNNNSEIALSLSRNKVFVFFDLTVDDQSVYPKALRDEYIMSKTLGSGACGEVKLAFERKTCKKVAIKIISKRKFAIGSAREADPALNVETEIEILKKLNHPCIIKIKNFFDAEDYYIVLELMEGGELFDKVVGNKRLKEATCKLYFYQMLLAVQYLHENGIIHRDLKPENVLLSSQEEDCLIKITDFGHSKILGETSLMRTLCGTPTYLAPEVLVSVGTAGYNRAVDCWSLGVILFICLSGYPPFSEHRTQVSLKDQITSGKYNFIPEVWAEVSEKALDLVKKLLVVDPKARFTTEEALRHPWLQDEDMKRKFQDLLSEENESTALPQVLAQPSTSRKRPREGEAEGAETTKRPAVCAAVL
WNK3 (h), sequence (Q9BYP7 whole entry): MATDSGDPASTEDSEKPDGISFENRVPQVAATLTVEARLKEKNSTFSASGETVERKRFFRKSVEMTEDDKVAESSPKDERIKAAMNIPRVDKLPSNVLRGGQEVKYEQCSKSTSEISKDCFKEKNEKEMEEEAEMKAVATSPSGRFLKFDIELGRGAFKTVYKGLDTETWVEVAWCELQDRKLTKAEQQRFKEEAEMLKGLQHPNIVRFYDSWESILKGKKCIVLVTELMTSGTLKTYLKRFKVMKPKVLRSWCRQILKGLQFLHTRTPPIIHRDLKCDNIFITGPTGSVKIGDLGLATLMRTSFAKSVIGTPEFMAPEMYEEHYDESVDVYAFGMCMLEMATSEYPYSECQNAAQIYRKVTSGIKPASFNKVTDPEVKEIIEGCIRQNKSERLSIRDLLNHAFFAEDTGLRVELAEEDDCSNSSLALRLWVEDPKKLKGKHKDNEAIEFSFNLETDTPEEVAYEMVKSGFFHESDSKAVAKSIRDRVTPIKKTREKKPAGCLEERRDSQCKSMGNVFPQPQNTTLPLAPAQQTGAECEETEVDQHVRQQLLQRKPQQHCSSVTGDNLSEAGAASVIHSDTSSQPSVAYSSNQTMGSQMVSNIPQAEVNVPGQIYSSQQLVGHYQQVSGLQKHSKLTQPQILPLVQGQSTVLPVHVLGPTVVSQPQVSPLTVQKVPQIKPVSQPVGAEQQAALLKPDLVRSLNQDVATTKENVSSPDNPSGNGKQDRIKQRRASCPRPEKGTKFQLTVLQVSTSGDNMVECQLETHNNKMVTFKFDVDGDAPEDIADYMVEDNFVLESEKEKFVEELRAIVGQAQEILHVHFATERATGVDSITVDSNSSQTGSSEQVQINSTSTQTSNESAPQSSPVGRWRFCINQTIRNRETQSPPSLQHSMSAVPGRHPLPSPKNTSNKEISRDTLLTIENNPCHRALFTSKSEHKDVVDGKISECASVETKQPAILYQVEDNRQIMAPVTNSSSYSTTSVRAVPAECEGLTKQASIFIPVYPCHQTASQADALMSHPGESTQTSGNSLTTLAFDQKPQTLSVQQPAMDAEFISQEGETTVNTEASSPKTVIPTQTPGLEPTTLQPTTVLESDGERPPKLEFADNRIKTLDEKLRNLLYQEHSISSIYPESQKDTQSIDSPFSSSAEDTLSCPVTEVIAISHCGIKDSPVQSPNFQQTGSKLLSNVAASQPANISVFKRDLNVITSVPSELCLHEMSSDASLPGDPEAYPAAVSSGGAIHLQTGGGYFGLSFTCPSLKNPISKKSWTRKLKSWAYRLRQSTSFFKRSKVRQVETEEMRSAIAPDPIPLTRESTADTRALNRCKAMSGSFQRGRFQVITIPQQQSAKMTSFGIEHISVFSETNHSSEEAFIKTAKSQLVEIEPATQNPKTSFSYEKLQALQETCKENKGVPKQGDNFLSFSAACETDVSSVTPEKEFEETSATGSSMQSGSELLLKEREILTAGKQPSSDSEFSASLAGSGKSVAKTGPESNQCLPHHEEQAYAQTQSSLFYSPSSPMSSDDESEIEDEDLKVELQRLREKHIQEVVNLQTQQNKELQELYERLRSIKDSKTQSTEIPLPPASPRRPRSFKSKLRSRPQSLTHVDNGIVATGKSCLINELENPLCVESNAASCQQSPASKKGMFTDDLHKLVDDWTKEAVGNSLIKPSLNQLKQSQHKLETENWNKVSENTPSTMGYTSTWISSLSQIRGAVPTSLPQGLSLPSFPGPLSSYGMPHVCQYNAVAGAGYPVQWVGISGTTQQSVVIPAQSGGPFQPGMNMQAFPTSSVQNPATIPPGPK
T6 sequence (P51617 whole entry): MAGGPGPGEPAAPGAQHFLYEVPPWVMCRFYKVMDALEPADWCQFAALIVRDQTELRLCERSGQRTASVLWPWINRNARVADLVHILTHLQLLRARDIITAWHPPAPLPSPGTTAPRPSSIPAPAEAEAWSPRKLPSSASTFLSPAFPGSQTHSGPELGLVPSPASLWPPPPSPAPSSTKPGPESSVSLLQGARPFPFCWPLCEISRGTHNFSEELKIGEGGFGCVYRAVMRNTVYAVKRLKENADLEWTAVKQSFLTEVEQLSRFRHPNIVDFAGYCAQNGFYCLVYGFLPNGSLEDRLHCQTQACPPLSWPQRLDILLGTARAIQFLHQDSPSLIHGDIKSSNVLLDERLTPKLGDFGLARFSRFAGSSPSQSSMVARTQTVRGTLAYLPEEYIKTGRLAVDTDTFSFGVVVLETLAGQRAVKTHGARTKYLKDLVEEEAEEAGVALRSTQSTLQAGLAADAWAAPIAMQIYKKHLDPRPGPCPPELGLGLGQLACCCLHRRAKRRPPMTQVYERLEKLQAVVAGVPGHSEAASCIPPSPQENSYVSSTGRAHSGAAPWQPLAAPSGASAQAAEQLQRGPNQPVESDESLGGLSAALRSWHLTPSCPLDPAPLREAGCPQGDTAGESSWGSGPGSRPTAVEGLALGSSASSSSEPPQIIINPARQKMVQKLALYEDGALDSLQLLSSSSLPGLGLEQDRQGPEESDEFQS

For KAFAKLAARLYRKALARQLGVAA [MMI-0400], the “% activity” value (SGK (h)) was 54%, the “% activity” value (CaMKI (h)) was 0% and the “% activity” value (MLCK (h)) was 1%. The “% activity” value (Met(D1246N) (h)) was 31%, the “% activity” value (WNK3 (h)) was 74% and the “% activity” value (Fgr (h)) was 47%. The “% activity” value (GRK7 (h)) was 100%, the “% activity” value (mTOR (h)) was 93% and the “% activity” value (CHK2(I157T) (h)) was 41%. For the same sequence, the “% activity” value (CHK1 (h)) was 87%, the “% activity” value (CK2 (h)) was 101% and the “% activity” value (IRAK1 (h)) was 93%. The “% activity” value (ARK5 (h)) was 69%.

With “YARAAARQARAKALNRQLGVA (Mammalian) [MMI-0200]” the “% activity” value (SGK (h)) was 115%, the “% activity” value (CaMKI (h)) was 21% and the “% activity” value (MLCK (h)) was 103%. The “% activity” value (Met(D1246N) (h)) was 149%, the “% activity” value (WNK3 (h)) was 97% and the “% activity” value (Fgr (h)) was 71%. The “% activity” value (GRK7 (h)) was 124%, the “% activity” value (mTOR (h)) was 110% and the “% activity” value (CHK2(I157T) (h)) was 85%. For the same sequence, the “% activity” value (CK2 (h)) was 83%, the “% activity” value (IRAK1 (h)) was 101% and the “% activity” value (ARK5 (h)) was 93%.

With “HRRIKAWLKKIKALARQLGVAA (Mammalian) [MMI-0500]” the “% activity” value (SGK (h)) was 2%, the “% activity” value (CaMKI (h)) was −1% and the “% activity” value (MLCK (h)) was 0%. The “% activity” value (Met(D1246N) (h)) was 90%, the “% activity” value (WNK3 (h)) was 9% and the “% activity” value (GRK7 (h)) was 93%. For the same sequence, the “% activity” value (mTOR (h)) was 135%, the “% activity” value (CHK2(I157T) (h)) was 3% and the “% activity” value (CHK1 (h)) was 65%. For the same sequence, the “% activity” value (CK2 (h)) was 93%, the “% activity” value (IRAK1 (h)) was 5% and the “% activity” value (ARK5 (h)) was 20%.

With FAKLAARLYRKALARQLGVAA [MMI-0300] the “% activity” value (SGK (h)) was 48%, the “% activity” value (CaMKI (h)) was 1% and the “% activity” value (MLCK (h)) was 2%. For the same sequence, the “% activity” value (Met(D1246N) (h)) was 82%, the “% activity” value (WNK3 (h)) was 77% and the “% activity” value (Fgr (h)) was 60%. The “% activity” value (GRK7 (h)) was 122%, the “% activity” value (mTOR (h)) was 91% and the “% activity” value (CHK2(I157T) (h)) was 43%. For the same sequence, the “% activity” value (CHK1 (h)) was 91%, the “% activity” value (CK2 (h)) was 90% and the “% activity” value (IRAK1 (h)) was 95%. The “% activity” value (ARK5 (h)) was 78%.
